Experimental findings from paper PMC10663500, “High-throughput analysis system of interaction kinetics for data-driven antibody design” (Scientific Reports, 2023) are described below.

B1: toripalimab Fab (wild-type) (Fab, V domains shown)
VH: QGQLVQSGAEVKKPGASVKVSCKASGYTFTDYEMHWVRQAPIHGLEWIGVIESETGGTAYNQKFKGRVTITADKSTSTAYMELSSLRSEDTAVYYCAREGITTVATTYYWYFDVWGQGTTVTVSS
VL: DVVMTQSPLSLPVTLGQPASISCRSSQSIVHSNGNTYLEWYLQKPGQSPQLLIYKVSNRFSGVPDRFSGSGSGTDFTLKISRVEAEDVGVYYCFQGSHVPLTFGQGTKLEIK
notes: toripalimab Fab heavy chain (VH-CH1); toripalimab Fab light chain (VL-CL); Residue numbers count consecutively from residue 1 of each chain; also called anti-hPD-1 antibody toripalimab; source: Brevibacillus, secreted into culture supernatant, ammonium sulfate precipitate (not further purified); not shown: 6xHis, C-terminal, kept; 6xHN, C-terminal, kept
B2: toripalimab Fab L.V99G (Fab, V domains shown)
VH: B1 VH
VL: B1 VL with V99G
notes: as the heavy chain of m1; as the light chain of m1, with the stated change; source: Brevibacillus, secreted into culture supernatant, ammonium sulfate precipitate (not further purified); not shown: 6xHis, C-terminal, kept; 6xHN, C-terminal, kept
B3: toripalimab Fab L.P100H (Fab, V domains shown)
VH: B1 VH
VL: B1 VL with P100H
notes: as for B2
B4: toripalimab Fab L.L101Y (Fab, V domains shown)
VH: B1 VH
VL: B1 VL with L101Y
notes: as the heavy chain of Sm3; light chain of Sm3 with this change; numbers count from the chain's first residue; source: Brevibacillus, culture supernatant (ammonium sulfate precipitate); not shown: 6xHis, C-terminal, kept; 6xHN, C-terminal, kept
B5: toripalimab Fab L.L101V (Fab, V domains shown)
VH: B1 VH
VL: B1 VL with L101V
notes: as for B4
B6: toripalimab Fab L.T102Y (Fab, V domains shown)
VH: B1 VH
VL: B1 VL with T102Y
notes: as for B4
B7: toripalimab Fab L.T102A (Fab, V domains shown)
VH: B1 VH
VL: B1 VL with T102A
notes: as for B4

Positions count from the first letter of the chain named.

T1 sequence (Q15116 24-167 C93S): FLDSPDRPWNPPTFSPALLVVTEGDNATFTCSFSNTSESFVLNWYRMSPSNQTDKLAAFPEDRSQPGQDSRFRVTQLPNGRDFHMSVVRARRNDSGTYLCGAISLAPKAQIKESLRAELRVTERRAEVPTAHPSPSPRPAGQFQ

One test has as its target T1, human programmed cell death protein 1 C93S (aa 24-167) (Homo sapiens, UniProt Q15116, C93S).
T1 construct: residues of the TEV site may be left after cleavage; also called hPD-1; human PD-1; source: Expi293F, transfected, purified (Protein A, TEV cleavage of Fc, Protein A + Ni-Sepharose, SEC; monomer fractions)
The test is described as follows: SPR; BreviA on Carterra LSA: Fab from ammonium sulfate precipitate of Brevibacillus supernatant immobilised on NiHC200M sensor; hPD-1 (1-1024 nM) or mPD-1-Fc (4-1024 nM) as analyte, fourfold dilution series, no regeneration; HBS-EP pH 7.4, 25 °C; medians of spots. Conditions: one partner purified.
In turn, B1 came in with a koff below 1e-05 s⁻¹.

The next test addresses T2, mouse programmed cell death protein 1 C60S (aa 25-167) Fc fusion protein (Mus musculus, UniProt Q02242, stabilised).
T2 construct: the Fc was not cleaved; also called mPD-1-Fc; mPD-1 Fc fusion protein; source: Expi293F, transfected, purified (Protein A, SEC; dimeric fraction)
The test is described as above. Conditions: one partner purified.
In the case of B2, the “fold increase in affinity against the wild type” value was above 100 fold.
B3: the “fold increase in affinity against the wild type” value was above 100 fold.

The next test deals with T3, human programmed cell death protein 1 (hPD-1) C93S (aa 24-167) (Homo sapiens, UniProt Q15116, C93S).
T3 construct: made as a fusion with a TEV site and human Fc; the Fc was cut off with TEV protease; source: Expi293F, purified (Protein A, TEV cleavage of Fc, SEC; monomer fractions); not shown: Fc (human), C-terminal, cleaved
T3 sequence (Q15116 24-167 C93S): as above
The test can be described thus: SPR; Carterra LSA; Fab from the ammonium sulfate precipitate of the culture supernatant immobilised on a NiHC200M chip; hPD-1 (1-1024 nM) or mPD-1-Fc (4-1024 nM) as analyte, fourfold dilution series, no regeneration; HBS-EP pH 7.4, 25 °C; medians over the spots of a construct, KD = koff/kon. The following applies: one partner purified. The essentials:
(§1)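 Fabs, ammonium sulfate-precipitated from Brevibacillus supernatants and redissolved in HBS-EP, were captured in duplicate on a NiHC200M chip on a Carterra LSA at 25 °C. Fourfold series of human PD-1 (1–1024 nM) or mouse PD-1-Fc (4–1024 nM) were run without regeneration, with association for 10 min and dissociation for 5 min. Rates were fitted with the kdka model, choosing the better of slow- or fast-dissociation settings, and unconfirmed binders were given kon 10^3 […] and koff 10^−2 s^−1. The dissociation constant KD is koff/kon based on per-construct medians.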
As for B4, the Kd is below 1.18 nM, the koff was below 1e-05 s⁻¹ and the kon was found to be 8500 M⁻¹ s⁻¹.
The molecule B5 showed a dissociation constant Kd of 2.41 nM, a koff of 1.35e-05 s⁻¹ and a kon of 5600 M⁻¹ s⁻¹.
The corresponding values for B6 are below 0.441 nM, below 1e-05 s⁻¹ and 22700 M⁻¹ s⁻¹.
B7 had a dissociation constant (Kd) below 0.809 nM, a koff below 1e-05 s⁻¹ and a kon of 12400 M⁻¹ s⁻¹.

The next test addresses T4, mouse programmed cell death protein 1 Fc fusion protein (mPD-1-Fc), mPD-1 C60S (aa 25-167) (Mus musculus, UniProt Q02242, stabilised).
T4 construct: not cleaved; source: Expi293F, purified (Protein A, SEC; dimeric fraction); not shown: Fc (human), C-terminal, kept
The test is described as above. Conditions: one partner purified. Summed up: as §1
With B4, the affinity, expressed as Kd, was 125 nM; the koff worked out at 0.00356 s⁻¹; the on-rate constant (kon) worked out at 28400 M⁻¹ s⁻¹.
B5 gave a dissociation constant (Kd) of 90.5 nM, a koff of 0.00146 s⁻¹ and a kon of 16100 M⁻¹ s⁻¹.
Turning to B6, the Kd was determined as 78.4 nM, the koff was determined as 0.00282 s⁻¹ and the kon was determined as 36000 M⁻¹ s⁻¹.
For the molecule B7, the affinity, expressed as Kd, was 115 nM; the koff stood at 0.00395 s⁻¹; the kon worked out at 34200 M⁻¹ s⁻¹.
